Laboratory results taken from article PMC3150355, “TAT-Mediated Transduction of MafA Protein In Utero Results in Enhanced Pancreatic Insulin Expression and Changes in Islet Morphology”.

Target: TAT-MafA (unphosphorylated, PBS treated) (human, UniProt Q8NHW3 1-353)
Experiment: EMSA; unphosphorylated; basal DNA-binding activity; Pierce LightShift chemiluminescent EMSA kit; 200 fmol/ul biotin-DNA, unlabeled competitor 10 pmol/ul, 82.15 ug TAT-MafA; ERK2 or PBS 37 C 1 h, then 20 min binding; buffer, pH and binding temperature not stated
Settings: protein: recombinant; TAT PTD (11 aa) and 6xHis, pTAT-2.1 (pET28); chain copies: 2; blunt

Chain of TAT-MafA (unphosphorylated, PBS treated) (Q8NHW3 whole entry): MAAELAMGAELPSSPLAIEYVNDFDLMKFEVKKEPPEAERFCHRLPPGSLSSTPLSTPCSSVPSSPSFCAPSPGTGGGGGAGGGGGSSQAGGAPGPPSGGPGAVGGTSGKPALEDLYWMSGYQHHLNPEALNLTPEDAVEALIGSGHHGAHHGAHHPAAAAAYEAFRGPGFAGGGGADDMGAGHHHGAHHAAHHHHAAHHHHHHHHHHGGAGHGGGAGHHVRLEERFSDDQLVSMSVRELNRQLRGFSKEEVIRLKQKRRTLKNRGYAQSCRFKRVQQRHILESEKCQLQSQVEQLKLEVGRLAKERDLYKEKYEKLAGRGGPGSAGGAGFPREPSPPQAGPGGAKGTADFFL

B1: insulin promoter -139 to -104 (C1 box) (dsDNA)
DNA 1: ATGGTCCGGAAATTGCAGCCTCAGCCCCCAGCCATC
DNA 2: GATGGCTGGGGGCTGAGGCTGCAATTTCCGGACCAT
binding result: binds
